From the supplement of paper PMC11246515
± gives the standard deviation of the averaged measurements.

Assay: total protein half-life in vivo (active degradation + dilution); higher = more stable protein
[1] = E. coli NCM3722 delta-clpP delta-lon delta-hslV, growth: N-lim chemostat, doubling time 6 h
[2] = E. coli NCM3722 delta-clpP, growth: N-lim chemostat, doubling time 6 h
[3] = E. coli NCM3722 delta-hslV, growth: N-lim chemostat, doubling time 6 h
[4] = E. coli NCM3722 delta-lon, growth: N-lim chemostat, doubling time 6 h
[5] = E. coli NCM3722 delta-smpB, growth: N-lim chemostat, doubling time 6 h
[6] = wild type E. coli NCM3722, growth: C-lim chemostat, doubling time 3 h
[7] = wild type E. coli NCM3722, growth: C-lim chemostat, doubling time 6 h
[8] = wild type E. coli NCM3722, growth: C-lim chemostat, doubling time 12 h
[9] = wild type E. coli NCM3722, growth: N-lim chemostat, doubling time 6 h
[10] = wild type E. coli NCM3722, growth: N-lim chemostat, doubling time 12 h
[11] = wild type E. coli NCM3722, growth: P-lim chemostat, doubling time 6 h
[12] = wild type E. coli NCM3722, growth: P-lim chemostat, doubling time 12 h

| Sequence | total protein half-life in vivo [1] [h] | total protein half-life in vivo [2] [h] | total protein half-life in vivo [3] [h] | total protein half-life in vivo [4] [h] | total protein half-life in vivo [5] [h] | total protein half-life in vivo [6] [h] | total protein half-life in vivo [7] [h] | total protein half-life in vivo [8] [h] | total protein half-life in vivo [9] [h] | total protein half-life in vivo [10] [h] | total protein half-life in vivo [11] [h] | total protein half-life in vivo [12] [h] |
| --- | --- | --- | --- | --- | --- | --- | --- | --- | --- | --- | --- | --- |
| MRKIALILAMLLIPCVSFAGLLGSSSSTTPVSKEYKQQLMGSPVYIQIFKEERTLDLYVKMGEQYQLLDSYKICKYSGGLGPKQRQGDFKSPEGFYSVQRNQLKPDSRYYKAINIGFPNAYDRAHGYEGKYLMIHGDCVSIGCYAMTNQGIDEIFQFVTGALVFGQPSVQVSIYPFRMTDANMKRHKYSNFKDFWEQLKPGYDYFEQTRKPPTVSVVNGRYVVSKPLSHEVVQPQLASNYTLPEAK [P0AA99] | 0.797 | 0.657 ± 0.077 | 0.844 | 0.64 | 0.689 ± 0.063 | 0.313 ± 0.18 | 1.37 | 1.81 | 0.909 ± 0.048 | 1.54 ± 0.73 | 0.858 ± 0.34 | 1.45 ± 0.56 |
| MLLATALLIVGLLLVVYSADRLVFAASILCRTFGIPPLIIGMTVVSIGTSLPEVIVSLAASLHEQRDLAVGTALGSNIINILLILGLAALVRPFTVHSDVLRRELPLMLLVSVVAGSVLYDGQLSRSDGIFLLFLAVLWLLFIVKLARQAERQGTDSLTREQLAELPRDGGLPVAFLWLGIALIIMPVATRMVVDNATVLANYFAISELTMGLTAIAIGTSLPELATAIAGVRKGENDIAVGNIIGANIFNIVIVLGLPALITPGEIDPLAYSRDYSVMLLVSIIFALLCWRRSPQPGRGVGVLLTGGFIVWLAMLYWLSPILVE | 4.93 | – | – | – | – | – | – | – | – | – | – | – |
| MLEDLRANSWSLRPCCMVLAYRVAHFCSVWRKKNVLNNLWAAPLLVLYRIITECFFGYEIQAAATIGRRFTIHHGYAVVINKNVVAGDDFTIRHGVTIGNRGADNMACPHIGNGVELGANVIILGDITLGNNVTVGAGSVVLDSVPDNALVVGEKARVKVIK [P0ACC9] | – | – | – | 7.07 ± 0.2 | – | – | – | – | – | – | – | – |
| MAEVTQLKRYDARPINWGKWFLIGIGMLVSAFILLVPMIYIFVQAFSKGLMPVLQNLADPDMLHAIWLTVMIALIAVPVNLVFGILLAWLVTRFNFPGRQLLLTLLDIPFAVSPVVAGLVYLLFYGSNGPLGGWLDEHNLQIMFSWPGMVLVTIFVTCPFVVRELVPVMLSQGSQEDEAAILLGASGWQMFRRVTLPNIRWALLYGVVLTNARAIGEFGAVSVVSGSIRGETLSLPLQIELLEQDYNTVGSFTAAALLTLMAIITLFLKSMLQWRLENQEKRAQQEEHHEH [P0AEB0] | 4.83 | 5.5 | 4.23 | – | 4.22 | 2.64 | 4.97 ± 1.4 | – | 4.59 | 4.73 | 4.26 | 10.7 ± 2 |
| MLEDLKRQVLEANLALPKHNLVTLTWGNVSAVDRERGVFVIKPSGVDYSVMTADDMVVVSIETGEVVEGTKKPSSDTPTHRLLYQAFPSIGGIVHTHSRHATIWAQAGQSIPATGTTHADYFYGTIPCTRKMTDAEINGEYEWETGNVIVETFEKQGIDAAQMPGVLVHSHGPFAWGKNAEDAVHNAIVLEEVAYMGIFCRQLAPQLPDMQQTLLDKHYLRKHGAKAYYGQ | – | – | – | – | – | – | 2.27 | 9.82 | – | – | – | – |
| MTMNITSKQMEITPAIRQHVADRLAKLEKWQTHLINPHIILSKEPQGFVADATINTPNGVLVASGKHEDMYTAINELINKLERQLNKLQHKGEARRAATSVKDANFVEEVEEE [P0AD49] | 6.33 ± 1.1 | 4.87 | 1.49 | – | 0.687 | 0.852 ± 0.17 | 2.32 | 2.47 ± 0.42 | – | 1.07 | – | 1.59 |
| MSESLHLTRNGSILEITLDRPKANAIDAKTSFEMGEVFLNFRDDPQLRVAIITGAGEKFFSAGWDLKAAAEGEAPDADFGPGGFAGLTEIFNLDKPVIAAVNGYAFGGGFELALAADFIVCADNASFALPEAKLGIVPDSGGVLRLPKILPPAIVNEMVMTGRRMGAEEALRWGIVNRVVSQAELMDNARELAQQLVNSAPLAIAALKEIYRTTSEMPVEEAYRYIRSGVLKHYPSVLHSEDAIEGPLAFAEKRDPVWKGR | – | – | – | – | 3.5 | 2.96 ± 0.038 | 4.96 ± 0.18 | 8.84 ± 0.32 | – | 5.66 | 5.25 ± 0.44 | 10.5 ± 0.97 |
| MNKNRGFTPLAVVLMLSGSLALTGCDDKQAQQGGQQMPAVGVVTVKTEPLQITTELPGRTSAYRIAEVRPQVSGIILKRNFKEGSDIEAGVSLYQIDPATYQATYDSAKGDLAKAQAAANIAQLTVNRYQKLLGTQYISKQEYDQALADAQQANAAVTAAKAAVETARINLAYTKVTSPISGRIGKSNVTEGALVQNGQATALATVQQLDPIYVDVTQSSNDFLRLKQELANGTLKQENGKAKVSLITSDGIKFPQDGTLEFSDVTVDQTTGSITLRAIFPNPDHTLLPGMFVRARLEEGLNPNAILVPQQGVTRTPRGDATVLVVGADDKVETRPIVASQAIGDKWLVTEGLKAGDRVVISGLQKVRPGVQVKAQEVTADNNQQAASGAQPEQSKS [P0AE06] | 5.95 ± 0.32 | – | 6.3 ± 0.28 | 6.62 ± 0.54 | 5.93 ± 0.21 | 2.921 ± 0.024 | 5.84 ± 0.46 | 12.1 ± 0.26 | 6.134 ± 0.05 | 13.33 ± 0.11 | 5.814 ± 0.041 | 12.5 ± 0.88 |
